Test results from the Human Domainome abundance scans (Beltran et al. 2025).
± gives the uncertainty stated by the source.

B1: Zinc finger MYM-type protein 3, residues 589 to 668; numbered along this chain, Q14202 (parent)
chain: LSCHYCHSLFSGKPEVLDWQDQVFQFCCRDCCEDFKRLRGVVSQCEHCRQEKLLHEKLRFSGVEKSFCSEGCVLLYKQDF

Variants of: B1
Experiment: abundance fitness (aPCA) (normalised: wild type 0, dead -1); higher = more abundant; growth selection in yeast, the domain comes from the species named
Settings: Homo sapiens

Variant	abundance fitness
LSCLYCHSLFSGKPEVLDWQDQVFQFCCRDCCEDFKRLRGVVSQCEHCRQEKLLHEKLRFSGVEKSFCSEGCVLLYKQDF [H4L]	-0.05 ± 0.04
LNCHYCHSLFSGKPEVLDWQDQVFQFCCRDCCEDFKRLRGVVSQCEHCRQEKLLHEKLRFSGVEKSFCSEGCVLLYKQDF [S2N]	0.48 ± 0.055
LLCHYCHSLFSGKPEVLDWQDQVFQFCCRDCCEDFKRLRGVVSQCEHCRQEKLLHEKLRFSGVEKSFCSEGCVLLYKQDF [S2L]	0.081 ± 0.043
LPCHYCHSLFSGKPEVLDWQDQVFQFCCRDCCEDFKRLRGVVSQCEHCRQEKLLHEKLRFSGVEKSFCSEGCVLLYKQDF [S2P]	-0.39 ± 0.061
LWCHYCHSLFSGKPEVLDWQDQVFQFCCRDCCEDFKRLRGVVSQCEHCRQEKLLHEKLRFSGVEKSFCSEGCVLLYKQDF [S2W]	-0.069 ± 0.06
LFCHYCHSLFSGKPEVLDWQDQVFQFCCRDCCEDFKRLRGVVSQCEHCRQEKLLHEKLRFSGVEKSFCSEGCVLLYKQDF [S2F]	0.141 ± 0.084
LKCHYCHSLFSGKPEVLDWQDQVFQFCCRDCCEDFKRLRGVVSQCEHCRQEKLLHEKLRFSGVEKSFCSEGCVLLYKQDF [S2K]	0.354 ± 0.045
LECHYCHSLFSGKPEVLDWQDQVFQFCCRDCCEDFKRLRGVVSQCEHCRQEKLLHEKLRFSGVEKSFCSEGCVLLYKQDF [S2E]	0.159 ± 0.058
LICHYCHSLFSGKPEVLDWQDQVFQFCCRDCCEDFKRLRGVVSQCEHCRQEKLLHEKLRFSGVEKSFCSEGCVLLYKQDF [S2I]	0.311 ± 0.069
LYCHYCHSLFSGKPEVLDWQDQVFQFCCRDCCEDFKRLRGVVSQCEHCRQEKLLHEKLRFSGVEKSFCSEGCVLLYKQDF [S2Y]	0.293 ± 0.056
LACHYCHSLFSGKPEVLDWQDQVFQFCCRDCCEDFKRLRGVVSQCEHCRQEKLLHEKLRFSGVEKSFCSEGCVLLYKQDF [S2A]	0.106 ± 0.051
LDCHYCHSLFSGKPEVLDWQDQVFQFCCRDCCEDFKRLRGVVSQCEHCRQEKLLHEKLRFSGVEKSFCSEGCVLLYKQDF [S2D]	0.412 ± 0.055
LMCHYCHSLFSGKPEVLDWQDQVFQFCCRDCCEDFKRLRGVVSQCEHCRQEKLLHEKLRFSGVEKSFCSEGCVLLYKQDF [S2M]	0.243 ± 0.051
LTCHYCHSLFSGKPEVLDWQDQVFQFCCRDCCEDFKRLRGVVSQCEHCRQEKLLHEKLRFSGVEKSFCSEGCVLLYKQDF [S2T]	-0.051 ± 0.068
LGCHYCHSLFSGKPEVLDWQDQVFQFCCRDCCEDFKRLRGVVSQCEHCRQEKLLHEKLRFSGVEKSFCSEGCVLLYKQDF [S2G]	0.157 ± 0.044
LHCHYCHSLFSGKPEVLDWQDQVFQFCCRDCCEDFKRLRGVVSQCEHCRQEKLLHEKLRFSGVEKSFCSEGCVLLYKQDF [S2H]	0.281 ± 0.055
LRCHYCHSLFSGKPEVLDWQDQVFQFCCRDCCEDFKRLRGVVSQCEHCRQEKLLHEKLRFSGVEKSFCSEGCVLLYKQDF [S2R]	0.12 ± 0.042
LVCHYCHSLFSGKPEVLDWQDQVFQFCCRDCCEDFKRLRGVVSQCEHCRQEKLLHEKLRFSGVEKSFCSEGCVLLYKQDF [S2V]	0.135 ± 0.049

Variant	abundance fitness
SSCHYCHSLFSGKPEVLDWQDQVFQFCCRDCCEDFKRLRGVVSQCEHCRQEKLLHEKLRFSGVEKSFCSEGCVLLYKQDF [L1S]	-0.206 ± 0.056
CSCHYCHSLFSGKPEVLDWQDQVFQFCCRDCCEDFKRLRGVVSQCEHCRQEKLLHEKLRFSGVEKSFCSEGCVLLYKQDF [L1C]	0.004 ± 0.074
GSCHYCHSLFSGKPEVLDWQDQVFQFCCRDCCEDFKRLRGVVSQCEHCRQEKLLHEKLRFSGVEKSFCSEGCVLLYKQDF [L1G]	-0.034 ± 0.056
RSCHYCHSLFSGKPEVLDWQDQVFQFCCRDCCEDFKRLRGVVSQCEHCRQEKLLHEKLRFSGVEKSFCSEGCVLLYKQDF [L1R]	-0.439 ± 0.076
FSCHYCHSLFSGKPEVLDWQDQVFQFCCRDCCEDFKRLRGVVSQCEHCRQEKLLHEKLRFSGVEKSFCSEGCVLLYKQDF [L1F]	0.279 ± 0.073
VSCHYCHSLFSGKPEVLDWQDQVFQFCCRDCCEDFKRLRGVVSQCEHCRQEKLLHEKLRFSGVEKSFCSEGCVLLYKQDF [L1V]	0.364 ± 0.051
PSCHYCHSLFSGKPEVLDWQDQVFQFCCRDCCEDFKRLRGVVSQCEHCRQEKLLHEKLRFSGVEKSFCSEGCVLLYKQDF [L1P]	-0.436 ± 0.34
ASCHYCHSLFSGKPEVLDWQDQVFQFCCRDCCEDFKRLRGVVSQCEHCRQEKLLHEKLRFSGVEKSFCSEGCVLLYKQDF [L1A]	-0.012 ± 0.16
MSCHYCHSLFSGKPEVLDWQDQVFQFCCRDCCEDFKRLRGVVSQCEHCRQEKLLHEKLRFSGVEKSFCSEGCVLLYKQDF [L1M]	0.442 ± 0.06
KSCHYCHSLFSGKPEVLDWQDQVFQFCCRDCCEDFKRLRGVVSQCEHCRQEKLLHEKLRFSGVEKSFCSEGCVLLYKQDF [L1K]	0.016 ± 0.069
ISCHYCHSLFSGKPEVLDWQDQVFQFCCRDCCEDFKRLRGVVSQCEHCRQEKLLHEKLRFSGVEKSFCSEGCVLLYKQDF [L1I]	0.363 ± 0.071
NSCHYCHSLFSGKPEVLDWQDQVFQFCCRDCCEDFKRLRGVVSQCEHCRQEKLLHEKLRFSGVEKSFCSEGCVLLYKQDF [L1N]	0.239 ± 0.11
QSCHYCHSLFSGKPEVLDWQDQVFQFCCRDCCEDFKRLRGVVSQCEHCRQEKLLHEKLRFSGVEKSFCSEGCVLLYKQDF [L1Q]	-0.703 ± 0.35
WSCHYCHSLFSGKPEVLDWQDQVFQFCCRDCCEDFKRLRGVVSQCEHCRQEKLLHEKLRFSGVEKSFCSEGCVLLYKQDF [L1W]	-0.641 ± 0.079
TSCHYCHSLFSGKPEVLDWQDQVFQFCCRDCCEDFKRLRGVVSQCEHCRQEKLLHEKLRFSGVEKSFCSEGCVLLYKQDF [L1T]	0.098 ± 0.046
ESCHYCHSLFSGKPEVLDWQDQVFQFCCRDCCEDFKRLRGVVSQCEHCRQEKLLHEKLRFSGVEKSFCSEGCVLLYKQDF [L1E]	0.082 ± 0.23
YSCHYCHSLFSGKPEVLDWQDQVFQFCCRDCCEDFKRLRGVVSQCEHCRQEKLLHEKLRFSGVEKSFCSEGCVLLYKQDF [L1Y]	0.047 ± 0.078
